Data set [1] has as its system ZFN 25717 (E32 ZFN6 monomer) (artificial). The data set is described as follows: cell_activity. To be noted: pair 25716/25717, NGS indels in maize Hi-II callus.
Data set [2] deals with ZFN 25716 (E32 ZFN6 monomer) (artificial). The data set is described as follows: cell_activity. The settings on record: pair 25716/25717, NGS indels in maize Hi-II callus.

As to “CGGAAGCGGATGGCCCGCTTCTTTAGAA (double strand) [25717 target]”, the activity (% of IPPK2 ZFN activity) in data set [1] came out at 380.

“TGATCGCATCGGGCATCGGCGACTGATG (double strand) [25716 target]” showed an activity (% of IPPK2 ZFN activity) in data set [2] of 380.
